The values below come from patent publication US20230399409A1 (SHANGHAI HUAOTA BIOPHARMACEUTICAL, published 2023).

Numbering of substitutions follows the chain as printed. In names and notes the source's numbering stands.

Sequences and labels used below:
B1: anti-IL-36R chimeric antibody 900497 (antibody, V domains shown)
VH: QVQLQQTGSVLVRPGTSVKLSCKASGYTFTSSWMHWAKQRPGQGLEWIGEIHPNSAKTNYNEKFKGKATLTVDTFSSTAYVDLSSLASEDSAVYYCARVDYGKPWFAYWGQGTLVTVSA
VL: QIVLTQSPTIMSASPGERVTMTCSASSSVSSSYLHWYQQKPGSSPKLWIYSTSNLASGVPARFSGSGSGTSYSLTINSMEAEDAATYYCQQFQSSPLTFGAGTKLGLK
notes: Human-mouse chimera: human IgG1 heavy-chain constant region with L234A and L235A (Eu numbering), human kappa constant region
B2: humanized anti-IL-36R antibody 900527 (antibody, V domains shown)
VH: QVQLVQSGAEVKKPGASVKVSCKASGYTFTSSWMHWAKQAPGQGLEWIGEIHPNSAKTNYNQKFQGRVTMTRDTSISTAYMELSRLRSDDTAVYYCARVDYGKPWFAYWGQGTLVTVSS
VL: QIVLTQSPGTLSLSPGERATLSCRASSSVSSSYLHWYQQKPGQAPRLWIYSTSSRATGIPDRFSGSGSGTDFTLTISRLEPEDFATYYCQQFQSSPLTFGQGTKLEIK
notes: IgG1 (human IgG1 L234A/L235A, human kappa); also called HB0034
B3: humanized anti-IL-36R antibody 900513 (antibody, V domains shown)
VH: B2 VH
VL: B2 VL with Q1E, R24S, S54N
notes: IgG1; built from the chimeric expression plasmids (human IgG1 L234A/L235A, human kappa)
B4: humanized anti-IL-36R antibody 900534 (antibody, V domains shown)
VH: B2 VH
VL: B2 VL with W48L
notes: IgG1 (human IgG1 L234A/L235A, human kappa)

The target in one experiment is T1, human IL-36R (human, UniProt Q9HB29 20-575).
T1 sequence (looked up): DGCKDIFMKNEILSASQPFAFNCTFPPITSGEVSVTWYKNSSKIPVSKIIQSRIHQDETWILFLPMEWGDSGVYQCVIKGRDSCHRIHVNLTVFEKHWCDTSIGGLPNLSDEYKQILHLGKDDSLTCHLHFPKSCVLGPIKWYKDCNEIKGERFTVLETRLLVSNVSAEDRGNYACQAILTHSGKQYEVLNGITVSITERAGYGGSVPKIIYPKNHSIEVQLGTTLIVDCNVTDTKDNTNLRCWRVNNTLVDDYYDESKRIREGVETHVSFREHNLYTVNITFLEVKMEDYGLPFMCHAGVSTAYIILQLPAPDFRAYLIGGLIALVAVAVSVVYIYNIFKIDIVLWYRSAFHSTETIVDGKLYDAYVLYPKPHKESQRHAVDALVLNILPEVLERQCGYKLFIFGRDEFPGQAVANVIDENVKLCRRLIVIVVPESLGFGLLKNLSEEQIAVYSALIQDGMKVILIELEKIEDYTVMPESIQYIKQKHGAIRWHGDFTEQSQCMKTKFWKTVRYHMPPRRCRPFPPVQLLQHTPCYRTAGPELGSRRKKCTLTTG
The experiment in a line: cell-based or functional assay.
As to B1, the “HuIL-6 detected in HIF under IL-36β stimulation IC50” value worked out at 0.0837 µg/mL.

Regarding B2, the “HuIL-6 detected in HIF under IL-36β stimulation IC50” value turned out to be 0.0546 µg/mL.

In the next experiment the target is T1, human IL-36R. The experiment in a line: flow cytometry on CHO-K1 cells expressing human IL-36R. On the technique in general: In flow cytometry, cells or beads pass a laser one at a time.
For orientation: EC50 means the midpoint of the concentration-response curve. For B2, a half-maximal effect (EC50) was put at 0.062 µg/mL.

Another experiment deals with T1, human IL-36R. The experiment in a line: cell-based or functional assay. The source holds these as a separate data set.
Turning to B1, the “pNFκB detected in HIF under IL-36β stimulation IC50” value was determined as 0.1 µg/mL.

Consider B2, for which the “pNFκB detected in HIF under IL-36β stimulation IC50” value is 0.105 µg/mL.

For a further experiment, the target named is T1, human IL-36R. The experiment in a line: cell-based or functional assay. The source holds these as a separate data set.
With B1, the “IC50, GM-CSF release under IL-36 α stimulation (NCI/ADR-RES cells)” value is 0.0328 µg/mL; the “IC50, GM-CSF release under IL-36 β stimulation (NCI/ADR-RES cells)” value came out at 0.0224 µg/mL; the “IC50, GM-CSF release under IL-36 γ stimulation (NCI/ADR-RES cells)” value was determined as 0.0288 µg/mL; the “IC50, IL-6 release under IL-36 α stimulation (NCI/ADR-RES cells)” value came to 0.0332 µg/mL. Also, the “IC50, IL-6 release under IL-36 β stimulation (NCI/ADR-RES cells)” value amounted to 0.0204 µg/mL; the “IC50, IL-6 release under IL-36 γ stimulation (NCI/ADR-RES cells)” value came out at 0.0198 µg/mL; the “IC50, IL-8 release under IL-36 α stimulation (NCI/ADR-RES cells)” value was 0.0439 µg/mL; the “IC50, IL-8 release under IL-36 β stimulation (NCI/ADR-RES cells)” value was 0.0292 µg/mL. Also, the “IC50, IL-8 release under IL-36 γ stimulation (NCI/ADR-RES cells)” value is 0.0284 µg/mL and the “IC50, pNF-κB under IL-36 β stimulation (NCI/ADR-RES cells)” value (“IC50, pNF-κB … (NCI/ADR-RES cells)” below) was 115 ng/ml.

B2: the “IC50, GM-CSF release under IL-36 α stimulation (NCI/ADR-RES cells)” value worked out at 0.022 µg/mL; the “IC50, GM-CSF release under IL-36 β stimulation (NCI/ADR-RES cells)” value was 0.0174 µg/mL; the “IC50, GM-CSF release under IL-36 γ stimulation (NCI/ADR-RES cells)” value is 0.0198 µg/mL; the “IC50, IL-6 release under IL-36 α stimulation (NCI/ADR-RES cells)” value was found to be 0.015 µg/mL. Further, the “IC50, IL-6 release under IL-36 β stimulation (NCI/ADR-RES cells)” value was determined as 0.0139 µg/mL; the “IC50, IL-6 release under IL-36 γ stimulation (NCI/ADR-RES cells)” value turned out to be 0.0162 µg/mL; the “IC50, IL-8 release under IL-36 α stimulation (NCI/ADR-RES cells)” value was determined as 0.0315 µg/mL; the “IC50, IL-8 release under IL-36 β stimulation (NCI/ADR-RES cells)” value was 0.0223 µg/mL. The “IC50, IL-8 release under IL-36 γ stimulation (NCI/ADR-RES cells)” value is 0.0198 µg/mL and the “IC50, pNF-κB … (NCI/ADR-RES cells)” value was found to be 71.4 ng/ml.

As for B3, the “IC50, GM-CSF release under IL-36 α stimulation (NCI/ADR-RES cells)” value amounted to 0.0206 µg/mL; the “IC50, GM-CSF release under IL-36 β stimulation (NCI/ADR-RES cells)” value worked out at 0.0184 µg/mL; the “IC50, GM-CSF release under IL-36 γ stimulation (NCI/ADR-RES cells)” value is 0.0179 µg/mL; the “IC50, IL-6 release under IL-36 α stimulation (NCI/ADR-RES cells)” value is 0.0124 µg/mL. For the same molecule, the “IC50, IL-6 release under IL-36 β stimulation (NCI/ADR-RES cells)” value was determined as 0.0223 µg/mL; the “IC50, IL-6 release under IL-36 γ stimulation (NCI/ADR-RES cells)” value was 0.0121 µg/mL; the “IC50, IL-8 release under IL-36 α stimulation (NCI/ADR-RES cells)” value was 0.0398 µg/mL; the “IC50, IL-8 release under IL-36 β stimulation (NCI/ADR-RES cells)” value turned out to be 0.0221 µg/mL. The “IC50, IL-8 release under IL-36 γ stimulation (NCI/ADR-RES cells)” value was determined as 0.018 µg/mL and the “IC50, pNF-κB … (NCI/ADR-RES cells)” value stood at 105 ng/ml.

In the case of B4, the “IC50, GM-CSF release under IL-36 α stimulation (NCI/ADR-RES cells)” value was 0.0202 µg/mL; the “IC50, GM-CSF release under IL-36 β stimulation (NCI/ADR-RES cells)” value came to 0.0186 µg/mL; the “IC50, GM-CSF release under IL-36 γ stimulation (NCI/ADR-RES cells)” value was 0.021 µg/mL; the “IC50, IL-6 release under IL-36 α stimulation (NCI/ADR-RES cells)” value was 0.0216 µg/mL. For the same molecule, the “IC50, IL-6 release under IL-36 β stimulation (NCI/ADR-RES cells)” value came to 0.0168 µg/mL; the “IC50, IL-6 release under IL-36 γ stimulation (NCI/ADR-RES cells)” value came out at 0.0176 µg/mL; the “IC50, IL-8 release under IL-36 α stimulation (NCI/ADR-RES cells)” value came out at 0.0304 µg/mL; the “IC50, IL-8 release under IL-36 β stimulation (NCI/ADR-RES cells)” value was found to be 0.022 µg/mL. Further, the “IC50, IL-8 release under IL-36 γ stimulation (NCI/ADR-RES cells)” value stood at 0.018 µg/mL and the “IC50, pNF-κB … (NCI/ADR-RES cells)” value is 64.9 ng/ml.

Another experiment deals with T1, human IL-36R. The experiment in a line: cell-based or functional assay. The source holds these as a separate data set.
Turning to B2, the “HuIL-6 detected in NCI/ADR-RES under IL-36β stimulation IC50” value turned out to be 0.00887 µg/mL.

A further experiment concerns the target T2, monkey IL-36R (monkey).
T2 construct: whole, on cells
The experiment in a line: flow cytometry on CHO-K1 cells expressing monkey IL-36R.
In turn, B2 returned an EC50 of 0.0595 µg/mL.

In another experiment the target is T1, human IL-36R. Put plainly: cell-based or functional assay. This is another data set of the same source.
For B1, the “HuIL-6 detected in HIF under IL-36α stimulation IC50” value is 0.146 µg/mL.

Consider B2, for which the “HuIL-6 detected in HIF under IL-36α stimulation IC50” value was 0.0479 µg/mL.

For another experiment, the target named is T3, His-tagged human IL-1 Rrp2/IL-1 R6 protein (human, UniProt Q9HB29 20-335).
T3 construct: Bought reagent; also called Human IL-1 Rrp2/IL-1 R6 Protein, His Tag; ACRO Biosystems IL2-H52H6; not shown: His tag
T3 sequence (looked up): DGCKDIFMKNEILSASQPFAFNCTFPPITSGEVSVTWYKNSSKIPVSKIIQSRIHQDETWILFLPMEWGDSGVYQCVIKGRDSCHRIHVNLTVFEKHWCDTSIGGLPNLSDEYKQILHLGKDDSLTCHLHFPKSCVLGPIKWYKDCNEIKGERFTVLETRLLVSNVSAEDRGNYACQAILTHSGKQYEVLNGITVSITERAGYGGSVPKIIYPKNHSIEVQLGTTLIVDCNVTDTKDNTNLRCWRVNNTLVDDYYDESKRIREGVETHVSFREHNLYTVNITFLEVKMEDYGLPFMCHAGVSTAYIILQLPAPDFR
Put plainly: SPR (Biacore 8K), His-tagged antigen captured by anti-His on CM5, antibody as analyte, 1:1 model. The protocol:
Series S Sensor Chip CM5 was equilibrated for 20-30 min at room temperature, and then fitted in the instrument. Following the instruction manual for His Capture Kit, an anti-His antibody was immobilized onto the Series S Sensor Chip CM5. An HBS-EP+(10×) solution was diluted 10-fold in ultrapure water as the running buffer. An antigen (His-tagged human IL-1 Rrp2/IL-1 R6 protein) was diluted to 1 μg/ml and 10 μL/min using the running buffer, and loaded during 15 sec to capture around 50 RU of antigen. An antibody sample were diluted to 30 nM, 15 nM, 7.5 nM, 3.75 nM, 1.875 nM, 0.9375 nM, and 0.46875 nM using an equilibration buffer; the running buffer was taken as zero concentration; at 30 μL/min, binding and dissociation were allowed to occur for 120 s and 900 s, respectively; and the chip was regenerated with the glycine solution at pH 1.5. The sample was analyzed by a capture-based single-cycle kinetics program; the corresponding analysis program was selected to analyze the data, and it was confirmed that there was no obvious reference binding; and the Kinetics 1:1 binding model was selected for fitting analysis to acquire the kinetic parameters of the sample.
On the technique in general: Surface plasmon resonance follows binding to a sensor surface in real time, without labels.
In general, Kd refers to the constant that tells how readily two partners part at equilibrium. Usually koff stands for the first-order rate constant of dissociation. For orientation: kon means a measure of how fast the partners come together. Regarding B1, the equilibrium dissociation constant (Kd) is 0.0254 nM, the dissociation rate constant (koff) stood at 1.68e-05 s⁻¹ and the on-rate (kon) was found to be 660000 M⁻¹ s⁻¹.

With B2, binding was characterised by a dissociation constant (Kd) of 0.0452 nM, the koff was determined as 4.37e-05 s⁻¹ and the association rate constant (kon) came to 967000 M⁻¹ s⁻¹.

Regarding B3, binding was characterised by a dissociation constant (Kd) of 0.0148 nM, the koff was determined as 1.34e-05 s⁻¹ and the kon worked out at 904000 M⁻¹ s⁻¹.

As to B4, the affinity, expressed as Kd, was 0.0579 nM; the koff worked out at 5.1e-05 s⁻¹; the on-rate constant (kon) stood at 881000 M⁻¹ s⁻¹.
